In the supplement of paper PMC10065799, “High-throughput profiling of sequence recognition by tyrosine kinases and SH2 domains using bacterial peptide display” (eLife, 2023) one finds SH2 binding enrichment and phosphorylation enrichment data, which are given here for eight sequences.

The target in one data set is c-Src SH2. As to the kind of experiment: SH2 binding enrichment of the phosphorylated peptide, bacterial display (enrichment ratio); higher = better substrate or ligand; peptides without Tyr show the background.
A further data set has as its target Grb2 SH2 (UniProt P62993). The data set is described as above.
The target in the next data set is SHP2-C SH2. The description is as above.
The next data set deals with MERTK (UniProt Q12866). The experiment in a line: phosphorylation enrichment, bacterial display (enrichment ratio); higher = better substrate or ligand; peptides without Tyr show the background.
Chain of MERTK (Q12866 whole entry, looked up): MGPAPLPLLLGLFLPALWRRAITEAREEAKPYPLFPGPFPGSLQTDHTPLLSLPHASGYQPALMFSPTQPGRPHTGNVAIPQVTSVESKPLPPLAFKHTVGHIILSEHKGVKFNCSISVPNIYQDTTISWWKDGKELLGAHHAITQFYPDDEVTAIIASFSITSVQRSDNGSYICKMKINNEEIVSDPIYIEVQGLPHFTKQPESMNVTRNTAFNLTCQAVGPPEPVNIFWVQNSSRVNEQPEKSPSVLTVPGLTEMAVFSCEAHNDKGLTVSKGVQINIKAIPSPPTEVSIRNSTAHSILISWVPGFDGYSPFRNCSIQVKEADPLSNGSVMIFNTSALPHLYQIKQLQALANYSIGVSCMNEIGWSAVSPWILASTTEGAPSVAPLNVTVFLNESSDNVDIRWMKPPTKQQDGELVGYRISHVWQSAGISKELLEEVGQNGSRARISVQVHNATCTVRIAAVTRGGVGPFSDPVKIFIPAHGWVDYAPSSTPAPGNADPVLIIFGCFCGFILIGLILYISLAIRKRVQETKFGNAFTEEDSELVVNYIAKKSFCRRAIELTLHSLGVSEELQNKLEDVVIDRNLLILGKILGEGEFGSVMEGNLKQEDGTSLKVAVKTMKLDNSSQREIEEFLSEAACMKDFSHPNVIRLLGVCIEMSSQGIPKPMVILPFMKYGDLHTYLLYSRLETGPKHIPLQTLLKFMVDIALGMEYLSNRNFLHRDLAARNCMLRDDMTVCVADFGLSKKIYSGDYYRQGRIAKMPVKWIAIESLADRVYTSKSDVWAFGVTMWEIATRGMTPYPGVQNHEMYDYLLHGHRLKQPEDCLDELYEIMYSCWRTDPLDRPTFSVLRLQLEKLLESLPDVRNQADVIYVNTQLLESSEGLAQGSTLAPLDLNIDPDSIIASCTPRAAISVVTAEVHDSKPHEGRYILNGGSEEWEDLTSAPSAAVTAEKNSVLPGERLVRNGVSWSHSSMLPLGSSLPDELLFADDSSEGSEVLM
The next data set has as its target Hck (UniProt P08631). The description is as above.
For a further data set, the system named is AncSZ. The data set is described as above.
The next data set concerns the target EPHB2 (UniProt P29323). The description is as above.
The subject of the next data set is c-Abl (mouse). The data set is described as above.
Another data set concerns the target Fyn (UniProt P06241). The description is as above.
Another data set has as its system c-Src. The data set is described as above.
The next data set concerns the target Jak2 (UniProt O60674). The description is as above.
The target in a further data set is EPHB1 (UniProt P54762). The data set is described as above.
Chain of EPHB1 (P54762 whole entry, looked up): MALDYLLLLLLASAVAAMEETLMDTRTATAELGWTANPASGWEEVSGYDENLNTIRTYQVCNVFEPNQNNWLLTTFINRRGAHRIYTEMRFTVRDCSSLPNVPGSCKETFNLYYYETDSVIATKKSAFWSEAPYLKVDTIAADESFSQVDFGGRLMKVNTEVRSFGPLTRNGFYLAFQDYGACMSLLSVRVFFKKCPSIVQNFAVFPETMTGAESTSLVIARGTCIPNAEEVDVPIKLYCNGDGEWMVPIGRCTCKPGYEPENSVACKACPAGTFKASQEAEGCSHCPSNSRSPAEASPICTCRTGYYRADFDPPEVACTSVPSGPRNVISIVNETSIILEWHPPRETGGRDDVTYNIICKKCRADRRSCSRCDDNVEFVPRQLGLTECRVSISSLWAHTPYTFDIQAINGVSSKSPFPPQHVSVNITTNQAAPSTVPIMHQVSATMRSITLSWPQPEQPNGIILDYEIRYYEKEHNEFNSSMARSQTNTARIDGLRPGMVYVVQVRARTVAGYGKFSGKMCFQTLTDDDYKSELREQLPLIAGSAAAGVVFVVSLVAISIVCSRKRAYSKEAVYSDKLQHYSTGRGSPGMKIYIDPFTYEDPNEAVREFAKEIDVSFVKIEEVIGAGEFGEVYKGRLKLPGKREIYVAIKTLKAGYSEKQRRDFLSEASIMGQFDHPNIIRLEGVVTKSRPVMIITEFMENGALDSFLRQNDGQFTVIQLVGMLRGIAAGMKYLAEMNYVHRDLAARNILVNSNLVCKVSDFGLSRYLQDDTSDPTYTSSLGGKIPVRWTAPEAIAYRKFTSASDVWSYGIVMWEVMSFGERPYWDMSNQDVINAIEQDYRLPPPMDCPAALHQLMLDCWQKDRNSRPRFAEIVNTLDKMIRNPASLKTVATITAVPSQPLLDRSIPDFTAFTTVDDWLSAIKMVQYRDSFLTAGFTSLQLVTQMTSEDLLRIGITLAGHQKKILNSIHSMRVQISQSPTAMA
For another data set, the target named is FGFR3 (UniProt P22607). The data set is described as above.
The next data set addresses FGFR1 (UniProt P11362). Described as above.
Another data set concerns the target Fes (UniProt P07332). Described as above.
The test system of the next data set is Fer (mouse). The description is as above.
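For SH2 binding enrichment of the phosphorylated peptide, bacterial display in this document: peptide library displayed on the E. coli surface as eCPX fusions, selected cells deep-sequenced, score is each peptide's frequency after selection divided by its frequency in the input.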
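For phosphorylation enrichment, bacterial display in this document: 11-residue human phosphosite peptides and single-mutation variants displayed on the E. coli surface, counted by deep sequencing, each peptide's frequency after selection divided by its frequency in the unselected input library; frequency after pTyr selection over input frequency; kinase dosed for 20-30% of maximal phosphorylation in three min.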

Chain of Jak2 (O60674 whole entry, looked up): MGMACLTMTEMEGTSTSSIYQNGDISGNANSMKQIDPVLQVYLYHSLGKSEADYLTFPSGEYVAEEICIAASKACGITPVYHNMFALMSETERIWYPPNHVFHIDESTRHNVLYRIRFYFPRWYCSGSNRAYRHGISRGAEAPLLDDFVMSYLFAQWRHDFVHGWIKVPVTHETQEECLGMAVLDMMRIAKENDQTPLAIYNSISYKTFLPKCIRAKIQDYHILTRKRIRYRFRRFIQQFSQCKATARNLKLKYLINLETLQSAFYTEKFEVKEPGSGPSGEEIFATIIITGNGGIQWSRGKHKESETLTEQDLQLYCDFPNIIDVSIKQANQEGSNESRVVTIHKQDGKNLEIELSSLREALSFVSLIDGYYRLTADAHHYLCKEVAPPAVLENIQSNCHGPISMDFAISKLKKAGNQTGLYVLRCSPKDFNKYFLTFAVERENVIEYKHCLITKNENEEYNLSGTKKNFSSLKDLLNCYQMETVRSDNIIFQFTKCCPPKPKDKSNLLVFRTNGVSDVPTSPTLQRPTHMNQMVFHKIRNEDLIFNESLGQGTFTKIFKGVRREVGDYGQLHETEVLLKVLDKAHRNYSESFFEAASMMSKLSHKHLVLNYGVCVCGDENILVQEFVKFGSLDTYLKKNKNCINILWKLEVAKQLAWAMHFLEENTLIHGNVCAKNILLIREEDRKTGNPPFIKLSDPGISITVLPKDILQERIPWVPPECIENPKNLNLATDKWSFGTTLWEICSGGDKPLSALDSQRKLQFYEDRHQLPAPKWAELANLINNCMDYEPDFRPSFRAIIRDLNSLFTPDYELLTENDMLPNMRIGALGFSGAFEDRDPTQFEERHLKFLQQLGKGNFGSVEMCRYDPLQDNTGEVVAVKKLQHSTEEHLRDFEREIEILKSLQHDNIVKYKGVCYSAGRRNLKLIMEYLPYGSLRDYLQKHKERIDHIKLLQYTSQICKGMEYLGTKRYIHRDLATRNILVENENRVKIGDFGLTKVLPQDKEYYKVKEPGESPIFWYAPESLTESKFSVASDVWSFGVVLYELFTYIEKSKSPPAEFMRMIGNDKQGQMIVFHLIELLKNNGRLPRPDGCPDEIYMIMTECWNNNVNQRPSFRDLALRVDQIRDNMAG
Chain of Hck (P08631 whole entry, looked up): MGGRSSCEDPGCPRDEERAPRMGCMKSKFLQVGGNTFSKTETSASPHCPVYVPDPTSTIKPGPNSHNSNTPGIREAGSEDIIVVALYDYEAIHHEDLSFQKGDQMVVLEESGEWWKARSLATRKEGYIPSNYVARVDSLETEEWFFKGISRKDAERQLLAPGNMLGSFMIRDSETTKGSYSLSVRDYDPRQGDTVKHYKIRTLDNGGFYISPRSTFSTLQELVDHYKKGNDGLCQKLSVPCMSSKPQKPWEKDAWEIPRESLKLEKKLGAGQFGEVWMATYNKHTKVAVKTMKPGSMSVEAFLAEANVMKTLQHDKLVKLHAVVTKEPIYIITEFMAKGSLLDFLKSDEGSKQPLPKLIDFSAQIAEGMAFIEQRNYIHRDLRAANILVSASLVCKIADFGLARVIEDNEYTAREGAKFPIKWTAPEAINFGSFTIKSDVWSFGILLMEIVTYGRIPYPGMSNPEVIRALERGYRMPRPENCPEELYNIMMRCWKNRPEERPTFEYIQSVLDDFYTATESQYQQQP
Chain of Fyn (P06241 whole entry, looked up): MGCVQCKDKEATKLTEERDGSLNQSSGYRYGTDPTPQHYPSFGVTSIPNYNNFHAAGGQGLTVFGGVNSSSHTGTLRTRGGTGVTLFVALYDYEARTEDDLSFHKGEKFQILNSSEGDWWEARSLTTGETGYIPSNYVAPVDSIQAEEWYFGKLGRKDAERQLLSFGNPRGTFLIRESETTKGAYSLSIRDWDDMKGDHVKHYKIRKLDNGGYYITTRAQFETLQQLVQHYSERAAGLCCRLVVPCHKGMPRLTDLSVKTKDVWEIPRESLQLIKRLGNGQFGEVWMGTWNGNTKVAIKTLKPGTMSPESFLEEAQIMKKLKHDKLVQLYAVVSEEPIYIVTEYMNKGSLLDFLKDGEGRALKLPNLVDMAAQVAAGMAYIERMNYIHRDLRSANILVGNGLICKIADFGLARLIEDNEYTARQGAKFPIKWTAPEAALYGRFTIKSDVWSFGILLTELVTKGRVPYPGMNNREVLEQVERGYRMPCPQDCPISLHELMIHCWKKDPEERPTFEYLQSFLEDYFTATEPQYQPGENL
Chain of FGFR1 (P11362 whole entry, looked up): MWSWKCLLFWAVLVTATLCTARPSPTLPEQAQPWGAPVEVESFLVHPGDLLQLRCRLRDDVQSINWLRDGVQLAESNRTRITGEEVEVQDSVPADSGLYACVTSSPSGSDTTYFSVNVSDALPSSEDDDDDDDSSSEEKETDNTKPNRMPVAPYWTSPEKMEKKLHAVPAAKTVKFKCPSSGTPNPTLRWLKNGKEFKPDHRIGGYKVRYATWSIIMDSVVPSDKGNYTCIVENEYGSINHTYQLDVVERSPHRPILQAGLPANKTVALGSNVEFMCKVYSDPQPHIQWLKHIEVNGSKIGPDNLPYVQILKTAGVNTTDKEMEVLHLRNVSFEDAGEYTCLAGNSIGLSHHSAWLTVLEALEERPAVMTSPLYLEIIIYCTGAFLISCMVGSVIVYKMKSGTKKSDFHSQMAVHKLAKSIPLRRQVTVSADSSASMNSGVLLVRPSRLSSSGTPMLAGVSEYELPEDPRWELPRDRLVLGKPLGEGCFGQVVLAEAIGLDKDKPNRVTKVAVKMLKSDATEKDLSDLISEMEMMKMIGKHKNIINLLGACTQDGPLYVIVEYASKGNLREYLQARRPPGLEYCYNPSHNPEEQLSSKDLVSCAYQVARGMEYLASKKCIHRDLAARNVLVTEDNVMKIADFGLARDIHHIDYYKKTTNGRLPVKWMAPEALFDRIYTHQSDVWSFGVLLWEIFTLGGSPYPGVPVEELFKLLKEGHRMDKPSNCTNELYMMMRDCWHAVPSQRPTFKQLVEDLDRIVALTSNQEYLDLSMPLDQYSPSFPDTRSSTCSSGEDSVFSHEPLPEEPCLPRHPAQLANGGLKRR

For ANVKWYRNGRE, the results for the SH2 binding enrichment with c-Src SH2, with Grb2 SH2 and with SHP2-C SH2 were 0.512, 0.658 and 0.487, respectively. In addition, the phosphorylation enrichment with MERTK turned out to be 0.468; with Hck, 0.484; in the data set with AncSZ, 0.867; with EPHB2, 0.578; in the data set with c-Abl (mouse), 0.479; with Fyn it was 0.43. In addition, the phosphorylation enrichment in the data set on c-Src turned out to be 0.485; in the data set with Jak2 it was 0.665; with EPHB1 it was 0.509; with FGFR3, 0.485; with FGFR1, 0.409; with Fes, 0.738. Besides, the phosphorylation enrichment in the data set on Fer (mouse) is 0.457.

Consider FPRAWCRRSIA [KIAA1109_Y4272_Y4272C], for which the SH2 binding enrichment with c-Src SH2 is 0.464; with Grb2 SH2 it was 0.759; with SHP2-C SH2 it was 0.4. For the same sequence, the phosphorylation enrichment with MERTK came out at 0.562; in the data set with Hck, 0.466; in the data set with AncSZ, 0.908; with EPHB2, 0.484; with c-Abl (mouse), 0.641; with Fyn, 0.557. Besides, the phosphorylation enrichment with c-Src turned out to be 0.523; in the data set with Jak2 it was 0.588; with EPHB1 it was 0.519; with FGFR3 it was 0.441; with FGFR1, 0.48; with Fes, 0.686. Also, in the data set with Fer (mouse), the phosphorylation enrichment turned out to be 0.455.

On to YSIDHYLGKEM [G6PD_Y202_R198S], for which the SH2 binding enrichment with c-Src SH2 stood at 0.577; with Grb2 SH2, 0.72; in the data set with SHP2-C SH2 it was 0.781. For the same sequence, the phosphorylation enrichment was determined as 1.3 with MERTK; 0.563 with Hck; 0.773 in the data set on AncSZ; 0.561 in the data set with EPHB2; 0.555 in the data set with c-Abl (mouse); 0.568 in the data set with Fyn. In addition, the phosphorylation enrichment with c-Src turned out to be 0.538; with Jak2 it was 0.828; with EPHB1, 0.509; with FGFR3, 0.617; in the data set with FGFR1 it was 0.589; with Fes, 0.671. Besides, the phosphorylation enrichment in the data set on Fer (mouse) was found to be 0.455.

Take VVDVTYDDVPI [FLNB_Y1308_E1305D]: the values for the SH2 binding enrichment in the data set with c-Src SH2, in the data set with Grb2 SH2 and with SHP2-C SH2 were 0.518, 0.822 and 0.866, respectively. The phosphorylation enrichment with MERTK turned out to be 0.511; in the data set with Hck it was 1.3; in the data set with AncSZ it was 1.38; with EPHB2, 1.23; in the data set on c-Abl (mouse) it was 0.801; in the data set with Fyn, 1.04. For the same sequence, the phosphorylation enrichment is 1.05 in the data set on c-Src; 0.951 in the data set with Jak2; 2.21 in the data set with EPHB1; 0.697 in the data set with FGFR3; 0.506 in the data set with FGFR1; 1.27 with Fes. Moreover, the phosphorylation enrichment with Fer (mouse) came to 3.96.

With AFGGGYGGVLT [KRT19_Y65_YF], the SH2 binding enrichment amounted to 0.455 with c-Src SH2, 0.784 with Grb2 SH2 and 0.719 in the data set with SHP2-C SH2. Also, the phosphorylation enrichment with MERTK was 0.286; with Hck it was 0.454; in the data set with AncSZ it was 0.699; in the data set with EPHB2, 0.407; with c-Abl (mouse), 0.685; in the data set with Fyn, 0.378. Moreover, the phosphorylation enrichment in the data set on c-Src amounted to 0.38; with Jak2, 0.625; with EPHB1, 0.478; with FGFR3, 0.446; in the data set with FGFR1 it was 0.338; with Fes, 0.647. For the same sequence, the phosphorylation enrichment in the data set with Fer (mouse) came out at 0.312.

On to CLAKMYFSAVE [CP_Y539_D544E_YF], for which the SH2 binding enrichment with c-Src SH2 was found to be 0.621; with Grb2 SH2, 1.09; with SHP2-C SH2, 0.834. Moreover, the phosphorylation enrichment was 0.514 with MERTK; 0.663 with Hck; 1.22 in the data set on AncSZ; 0.552 with EPHB2; 0.848 in the data set on c-Abl (mouse); 0.822 in the data set with Fyn. Also, the phosphorylation enrichment in the data set on c-Src was determined as 0.721; with Jak2, 1.19; in the data set with EPHB1, 0.589; with FGFR3, 0.909; with FGFR1 it was 0.599; with Fes, 1.35. The phosphorylation enrichment in the data set on Fer (mouse) was 0.602.

As for LHQSTYQRFDV [SLC7A14_Y693_YF], the SH2 binding enrichment came to 0.897 in the data set with c-Src SH2, 1.03 with Grb2 SH2 and 0.635 with SHP2-C SH2. The phosphorylation enrichment with MERTK amounted to 1.19; with Hck, 1.77; in the data set with AncSZ, 1.31; in the data set with EPHB2 it was 1.17; with c-Abl (mouse), 0.838; with Fyn, 1.83. The phosphorylation enrichment in the data set on c-Src was 2.69; in the data set with Jak2, 0.652; with EPHB1, 1.45; in the data set with FGFR3 it was 1.18; with FGFR1, 1.14; with Fes, 1.32. For the same sequence, in the data set with Fer (mouse), the phosphorylation enrichment stood at 0.955.

As to SENAFYLSPHI [COL6A3_Y2827_D2831H], the SH2 binding enrichment with c-Src SH2 was found to be 0.461; in the data set with Grb2 SH2 it was 0.776; with SHP2-C SH2, 0.606. The phosphorylation enrichment turned out to be 0.696 with MERTK; 0.863 with Hck; 1.26 in the data set on AncSZ; 0.573 in the data set with EPHB2; 1.96 in the data set on c-Abl (mouse); 0.487 with Fyn. Besides, the phosphorylation enrichment in the data set with c-Src turned out to be 0.491; in the data set with Jak2, 3.25; with EPHB1 it was 0.576; with FGFR3, 0.693; with FGFR1, 0.653; in the data set with Fes, 0.887. Moreover, the phosphorylation enrichment in the data set with Fer (mouse) turned out to be 0.775.
